Residue numbers refer to the chain shown, from its start.
T1: Cas12i-99 (N295R,N260R,G705R,D590R)
T1 chain: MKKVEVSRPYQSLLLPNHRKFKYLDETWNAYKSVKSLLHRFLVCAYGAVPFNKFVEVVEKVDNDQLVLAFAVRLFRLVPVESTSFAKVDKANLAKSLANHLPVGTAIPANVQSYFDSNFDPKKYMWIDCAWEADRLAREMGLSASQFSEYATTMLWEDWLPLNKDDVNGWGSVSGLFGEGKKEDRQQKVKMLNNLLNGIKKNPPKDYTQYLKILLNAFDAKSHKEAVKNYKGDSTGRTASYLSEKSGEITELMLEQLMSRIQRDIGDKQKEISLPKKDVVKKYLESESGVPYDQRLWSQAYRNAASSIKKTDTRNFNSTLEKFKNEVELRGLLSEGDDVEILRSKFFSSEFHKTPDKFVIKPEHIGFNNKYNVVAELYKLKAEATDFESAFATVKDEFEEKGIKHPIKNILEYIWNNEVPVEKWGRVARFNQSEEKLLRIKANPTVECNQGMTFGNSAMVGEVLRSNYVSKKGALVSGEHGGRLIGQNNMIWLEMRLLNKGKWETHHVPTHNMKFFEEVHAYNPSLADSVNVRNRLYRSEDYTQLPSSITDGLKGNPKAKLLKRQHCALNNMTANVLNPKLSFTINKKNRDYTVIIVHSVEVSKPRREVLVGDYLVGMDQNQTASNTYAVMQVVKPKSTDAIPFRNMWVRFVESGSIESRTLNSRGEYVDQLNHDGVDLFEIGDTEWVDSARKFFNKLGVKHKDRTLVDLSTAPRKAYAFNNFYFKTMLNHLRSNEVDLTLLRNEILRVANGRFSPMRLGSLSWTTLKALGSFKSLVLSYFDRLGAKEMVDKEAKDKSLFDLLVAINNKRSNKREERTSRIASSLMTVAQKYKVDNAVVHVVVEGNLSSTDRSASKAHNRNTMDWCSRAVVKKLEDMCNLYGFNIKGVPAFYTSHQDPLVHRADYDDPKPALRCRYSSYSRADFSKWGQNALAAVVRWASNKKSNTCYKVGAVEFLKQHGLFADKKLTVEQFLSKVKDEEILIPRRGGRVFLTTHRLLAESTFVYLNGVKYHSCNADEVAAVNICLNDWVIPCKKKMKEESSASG

T2: Cas12i-133 (N295R,N260R,G705R,Q971E)
T2 chain: T1 chain with R590D, Q971E

B1: gRNA-HBG ; HBG target (ssRNA ; dsDNA)
RNA: AGAGAAUGUGUGCAUAGUCACACACAAGGCAAACUUGACCAAU
DNA 1: ACAAGGCAAACTTGACCAAT
DNA 2: ATTGGTCAAGTTTGCCTTGT
B2: gRNA-HBB ; HBB target (ssRNA ; dsDNA)
RNA: AGAGAAUGUGUGCAUAGUCACACUAUGCAGAAAUAUUGCUAUUGCCU
DNA 1: TATGCAGAAATATTGCTATTGCCT
DNA 2: AGGCAATAGCAATATTTCTGCATA
B3: gRNA-TTR ; TTR target (ssRNA ; dsDNA)
RNA: AGAGAAUGUGUGCAUAGUCACACCAGUAAGAUUUGGUGUCUAU
DNA 1: CAGTAAGATTTGGTGTCTAT
DNA 2: ATAGACACCAAATCTTACTG

Target: T1, Cas12i-99
Assay: cell_activity; 293T indels
Method: (§1) Plating: The 293T cell line was plated when the confluence reached 70-80%, and the number of cells seeded in a 24-well plate was 5*10\hat{ }5 cells/well.
(§2) Transfection: After 12-14 hours of plating, transfection was performed. 100 μl of Opti-MEM, 1.5 μl of PEI (Yisheng Bio, Polyethylenimine Linear (PEI) MW25000), 250 ng of the mutant clone plasmid from Example 2, and 250 ng of gRNA plasmid for targeting endogenous genes were added to each well of a 24-well plate. The mixture was incubated at room temperature for 20 minutes and then added to 293T cells for transfection. After transfection overnight, the medium was replaced with fresh medium and cultured for the next period.
(§3) DNA extraction, PCR amplification, and Sanger sequencing: After culturing for 72 hours, cells were washed with PBS, and then 100 μl of cell lysis buffer (Viagen, DirectPCR® Lysis Reagent (Cell)) was added for lysis to obtain a lysate containing genomic DNA. The genomic DNA was amplified in the region near the target sequence, and the PCR product was sent to a sequencing company for Sanger sequencing.

Binder | relative indel editing efficiency
B1 | 7 fold of wild type
B2 | 0.9 fold of Cas12i-69
B3 | 1.19 fold of Cas12i-69

Target: T2, Cas12i-133
Assay: cell_activity; 293T indels
Method: as §1, §2, §3

Binder | relative indel editing efficiency
B1 | 1.57 fold of wild type
B2 | 0.78 fold of Cas12i-69
B3 | 4.95 fold of wild type
